Earlier results on 1 substance are cited in publication PMC5371392.

For this series, the target named is KaiC (Synechococcus elongatus) (UniProt Q79PF4).
Chain of UniProt Q79PF4 (Q79PF4 whole entry): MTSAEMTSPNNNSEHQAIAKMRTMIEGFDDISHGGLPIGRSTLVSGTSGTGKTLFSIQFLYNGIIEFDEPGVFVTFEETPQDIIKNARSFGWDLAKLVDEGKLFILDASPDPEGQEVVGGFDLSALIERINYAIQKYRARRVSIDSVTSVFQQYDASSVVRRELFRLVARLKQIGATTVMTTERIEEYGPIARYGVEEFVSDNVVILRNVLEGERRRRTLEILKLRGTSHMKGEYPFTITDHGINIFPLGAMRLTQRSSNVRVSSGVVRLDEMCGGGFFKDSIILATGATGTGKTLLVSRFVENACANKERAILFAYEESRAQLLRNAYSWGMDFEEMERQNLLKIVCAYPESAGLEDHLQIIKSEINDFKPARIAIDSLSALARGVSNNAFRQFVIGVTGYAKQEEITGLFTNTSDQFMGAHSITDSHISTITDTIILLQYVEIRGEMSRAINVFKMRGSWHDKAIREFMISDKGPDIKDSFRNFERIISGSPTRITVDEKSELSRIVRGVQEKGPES

As to KaiA (from UniProt Q79PF6), the Kd is 1 nM.
